Experimental data: the DeepSol protein solubility set

Assay: soluble on expression in E. coli; label from the status in PepcDB or PDB records

Row | Sequence | soluble on expression in E. coli
1 | MAIFSRTKRVTDPLDDDAKARILSSHSYILDQDSPRLCELVHGFLEDGPEESFYDSDPDLSETSSAEHSGEASVEIVRMAVSFSDSDPYRNLLLAHVLRAVEVYSGFRSRNKTVFRDKVASFLRELGHDAAVCVSKWTSSSKLIAGSYHFIDVVHKPSDNDQKAVRYLVDLDFASEFEIARPTREYTRGLQLLPNVFVGNEENLRTIVRESCDAAKRSMKSRGLSLPPWRRSSYLQHKWFGPYKRKVGSSLGVKPLNSDAVSCRSLGFDDGAVNTRLFIRA | soluble
2 | PILYLHGFRSSPDSFKARLLAQAMHQRGLAGQWQCPQLPASPRQAAELALALAREQLAGQQDPRRLTVIGSSLGGYYATWLAERLGCQAVLLNPAVQAARDLATQVGEHRMYHSDAPFHFLPEYVEELRALYADPLTHPERYFLVAATGDEVLDWREMRDRYPGCRQRIVQGGDHGLSDFPRWMPEVLEFA | not soluble
3 | MGNSCQNGTYGNNYQNSNRFQNDRFASRYVDGNDTEDCYSGSSRASLAGALRQGLNLKSPVLGYKTPNVRELYTLGRELGQGQFGKTYLCTEISTGCQYACKTILKSNLRCVSDIEDVRREIQIMHHLSGQKNIVTIKDTYEDEQAVHIVMELCAGGELFSKIQKRGHYSERKAAELIKIIVGIIETCHSHGVMHRDLKPENFLLLDADDEFSVKAIDFGLSVFFRPGQVFREVVGSPYYIAPEVLEKRYGPEADIWTAGVILYVLLTGVPPFWADTQSGIYEKVLDGRIDFKSNRWPRISDSAKDLIKKMLCPYPSERLKAHEVLKHPWICDNGVATNRALDPSVLPRLKQFSAMNRLKKLSLQIIAERLSEEEIVGLREMFKAMDTKNRSVVTFGELKGLKRYSSVFKDTEINDLMEAADDTTSTINWEEFIAAAVSLNKIEREKHLMAAFTYFDKDGSGFITVDKLQKACMERNMEDTFLEEMILEVDQNNDGQIDYAEFVTMMQSNNFGLGWQTVESSLNVALREAPQVY | not soluble
4 | MRYFIVAGEASGDLHASNLVRALKEHDPEAVFAFMGGDFLSEATGERPIFHYREVAFMGFIPVLTHLGVIRRAGEHVQEQMRAFNPDVVIAVDYPGFNMRYVLPFVREELGKPIVYYISPKVWAWKSWRIKTLKKYVDLMLCILPFEKDFFAGHDFPVIYVGNPCYDAVKQHMRPTIEEQERSAKDSRQVALLCGSRLLEVKENLPVMLRVMKQFPDYRPVIAGAPGLTIQDYTPFLPDDSIPVVFGRTYEILRESKAALVTSGTATLETALIGTPQVVCYYIRGGRLTNLIFKYCFGTPFISLTNLIAGRAVVPELFGALFTEKRLAASLSPLLDASSAERQAQLSGYDSIRKSIGTDNTSDKAARHIIARFAKDNARPSSL | not soluble
5 | MIQQESRLKVADNSGAREVLVIKVLGGSGRRYANIGDVVVATVKDATPGGVVKKGQVVKAVVVRTKRGVRRPDGSYIRFDENACVIIRDDKSPRGTRIFGPVARELRDKDFMKIISLAPEVI | soluble
6 | MVLRKLSTYRQKRDFEKTPEPSGEAAVASSKQRRFVIQKHDASRLHYDFRLEFDGVFKSWAVTKGPSLDPHDKRLAVEVEDHPLDYGDFEGTIPEGQYGGGTVMLWDRGTWEADDPERGFKKGDLKFTLHGEKLHGSWVLVRMRNDRDGGKRTNWLLIKHRDEYAREGEDILAEDKSVASGRAMAQIAEGKGLEHHHHHH | not soluble
7 | MFISCFDMFKIGIGPSSSHTLGPMKAGKAFVDTLEERDLLDRVTRVRADVYGSLSLTGIGHATDKAIIMGLAGFEPETVDIDAMPGFLEIVASLQRLALAGGKKTVDFSRTEGIVFHNTCLQLHENGMTITAFEGDEVLLTKAYFSIGGGFIVDKEHFGLPVEDTAVVPFPYNTAEEVLAHCDREGMSIPEFAWRNEVAANGEEAVREHLAKVWKVMQSGIERGSSAEGILPGDLRVPRRAKALRERLEATSENEPLRMMSWLNMFAMAVNEENASGGRVVTSPTNGACGVLPAVLSYWDRLVKPVGEQEVIDYLLTCGVVGALYKKNASISGAEVGCQGEVGVACSMAAAGIAQLMGATPAQAFAAAEIAMEHNLGLTCDPVCGQVQVPCIERNAIAAVTSVNAANMSLQRGSTPTVSLDQVIQTMYQTGKDMDSKYRETSLGGLAKVLMPRLMPCS | not soluble
8 | MGSDKIHHHHHHMQREKVDVLVIGAGPAGTVAASLVNKSGFKVKIVEKQKFPRFVIGESLLPRCMEHLDEAGFLDAVKAQGFQQKFGAKFVRGKEIADFNFSDQFSNGWNWTWQVPRGNFDKTLADEAARQGVDVEYEVGVTDIKFFGTDSVTTIEDINGNKREIEARFIIDASGYGRVIPRMFGLDKPSGFESRRTLFTHIKDVKRPVAAEMEGNRITAVVHKPKVWIWVIPFSNGNTSVGFVGEPSYFYYYTGTPEERMRAMIANEGHIAERFKSEEFLFEPRTIEGYAISASKLYGDGFVLTGNATEFLDPIFSSGATFAMESGSKGGKLAVQFLKGEEVNWEKDFVEHMMQGIDTFRSFVTGWYDGTLHAVFFAKNPDPDHKRMICSVLAGYVWDKNNPFVKKHNTILKTLAKVIQMGEEA | not soluble
9 | MNLFGQKDRGNHVSGVDRGKVIMYGLSTCVWCKKTKKLLTDLGVDFDYVYVDRLEGKEEEEAVEEVRRFNPSVSFPTTIINDEKAIVGFKEKEIRESLGF | soluble
10 | MGSDKIHHHHHHMKKGLVMEGGAMRGLYTAGVTDVLMKYGIKFDGAVGVSAGVTFGCNYKSLQPGRVLRYNLRYGSRPQFKSWRSWIKTGDLYGADFCYYTLPEVLDPFDTAAFARNPMDFWCVATDVETAQPAYHKLTTGKGRDVAWIRASASIPVFARPVKIGGHAYWDGGVSDSIPVRFLLDKDYDKAVVILTQPAGYQKEPSRLQPVIDRVLKKYPAVVARLRQRHLEYNACLAYIAKEEAAGHLFVFRPSQGIDVSAMEKDPNRLKAVYQVGVRGCQAAIGGLEGIFTRLSTKNGD | not soluble
11 | MSTAEQIATLENRINELELENKRLHETVAYLTRKLYGRSSEKTSALSVGQVSLFDEAEVYAVPQAPEPDLKEVQGYIRRKYKGQRTDLLKDIPHDKRLCTLAEEDRYCEACGTDLVSVGKEFIRTEIEFIPAKIRVIDYYRETFECRTCRKNGEPYMEKSPMPYPVIQHSMASPSTVAWIMHQKFVNHLPLYRQENEWKMLGVNLKRETMSNWILAAARDWLMPLVDLMHKKLLQEKYLHADETTVQVLNEEGRSNTTNSYMWVYSSGKYCKKQIRLFQYQPGRNGKYPQEFLKGFSGFLHTDAYSGYKKVPEITRCMCWTHLRRYFRDALPKDTQSPEATIPSQGIRFCNKLFEIEETLEKLTQEQRRLERLKQETPVLEAFWSWVDSVKDKVLPKSKIGEAIQYALNNKEDFMNYLLDGNCSISNNLSENSIRPFTLGRKNWLFSGSPRGADASAAVYSIVESAKANDINPYKYLYYIFSELPGVQFGQNPEFLEDYLPWSPDVQAACK | soluble
12 | MGSDKIHHHHHHVVAEAVNLQFDYSRYGFRQEERYVYKAPKGLNERIVRELSGMKGEPEWMLKRRLRALEIFNKKPTPLVGTWANPELAELNYDDIHYFVRANERPQTDWDAVPPEIKNTFERLGIPEAERKFLAGVGAQYESEVVYHSLREEWAKQGVIFLDTDTALKEYPEFFKEYFGTIVPAADNKYAALNTAVWSGGSFVYVPKGVKVDIPLQAYFRINAERMGQFERTLIIIDEGAEAHYIEGCTAPIYSTNSLHSAVVEVIVKKGGKFRYTTIQNWANNIFNLVTKRAVAYEEASMEWVDGNIGSKLTMKYPSVYLMGRKARGEVLSVAYAGRGQHQDAGAKMIHLAPETTSRITNKSVSKDGGKTTYRGLAKVAPGAYGAKINVNCDALILDEHSASDTIPYIEIEEDRCTLAHEATVGRIGAEQLFYLMSRGISESDALSMIVLGFMEPFTRELPMEYAVELNRLIQLEMEGSVG | not soluble
13 | MSLSEIVVSKFGGTSVADFDAMNRSADIVLSDANVRLVVLSASAGITNLLVALAEGLEPCERFEKLDAIRNIQFAILERLRYPNVIREEIERLLENITVLAEAAALATSPALTDELVSHGELMSTLLFVEILRERDVQAQWFDVRKVMRTNDRFGRAEPDIAALAELAALQLLPRLNEGLVITQGFIGSENKGRTTTLGRGGSDYTAALLAEALHASRVDIWTDVPGIYTTDPRVVSAAKRIDEIAFAEAAEMATFGAKVLHPATLLPAVRSDIPVFVGSSKDPRAGGTLVCNKTENPPLFRALALRRNQTLLTLHSLNMLHSRGFLAEVFGILARHNISVDLITTSEVSVALTLDTTGSTSTGDTLLTQSLLMELSALCRVEVEEGLALVALIGNDLSKACAVGKEVFGVLEPFNIRMICYGASSHNLCFLVPGEDAEQVVQKLHSNLFEEGHHHHHH | soluble
14 | MTETTHVTSCPLNCWDVCGLKVTVNEGKVVRVDGDEHHPITKGNICGRGRMLKERVNAKERLLYPLKKVNGQFVRISWEEALDDIAGKMRKLKEQFGPTAVLHSHDYANNGLLKNLDRRFFNCYGGATELIGSLCWGAGIEAQTWDFGNAYSHAPEDIDNSRHIVIWGRNVARTNMHLFERLLAAKKRGATIVVIDPLFGPTARIADQYVCIKPGMDAFLAMGIMKELLRLGLEDRAFIKQHTIGFDDVKQLLQTISLAEIERHTGVSRDQMTKLARLYGDRPTATYLGLGMQRYANGGNTIRWIDALVAASGNVGIPGGGANFGNLQVGECFDKAALTLPERKTASRTWTMMKQGEEILRADDPPIGMVIVTCGNPLAQVPNTNLMKKAFASIETVVVFEQFMTDTAAMADYVLPVAASFEEEDVYCSSMYHAYLNYGPKLVDPPGEAKPDLWIWTELAKRLGFGDDFAYTREQFLAMALRPLEHHGITLKRLKTEHRVLLPVEPVPWRDRRFQTPSGKYEFTSTIAKKKGMDGRLQIMYPAESEESNPALAAKYPYRLLTIHPLRSNHSQHYPLIPALQTVRIEVAADVAAAKGLADGDRARVYNDRGSLVGTVKVLDGAYPGTINIDEGQWGVFGGPVNVLTSDLESDNGCGSALYDCLVNIEKVTSEAK | soluble
15 | MGSDKIHHHHHHRVAQCCAIIDRSKIVIGFSDHGLYCIEISRQLLIPVGGEKENKQRCVETVEYDEAEQLLMMIVGPAKDRHVRIVPSAALDGRDLKWIKVNDTKGCHLLAVGTNNPGGRAGFFAVAFKKSVTIFQIDRSEKRHKKWKDLAMPGTPQSIAIFNGRLYVGFSHSFRSWSLVGVDSSPVGSGDASGAVLQHISLVNMEDTSLQFLNQQTSYEAKLIVNVPGSPDEYLLVFNMIGLYVNEMGRRSRLPEVMFPTQAKYFAYHEPYLCVFSENEVDIFNVTLAEWVQTINLRSAKPLSGDGILSTCLCNDSPIFVLLQN | not soluble
16 | MALVQALVPREREPKLSILQMDRGDPQHSSHWCPEREKVKLLTLKPRETSKNILINFYRAFNLDKDVFIHQANHPLTVPSSVVMGDNGHTLAEDDKRPCFRVLPCYLERVSSGISISWISAPLPVGAMKHQLLCDLMDLITLSFWLAGQCMSLKATNMQHCKCSIATSDWAIELDRTDYKTLPSEYSILALLQVFAGKNCMDRVLLHVDVNYLKSLP | soluble
17 | MHPKDQSVTLLSIIRDYLKLSDKEREAARILANGLVKVDGKTVREKKFAVGFMDVIEINGESYRVVYNDQGALVLMKETKERASMKLLKVRSKVIAPGNRIQLGTHDGRTFITDDKSKKVGDVWAVSVPDMKISEIIKMQPGNKAYITAGSHVNQTGTISKIEAKEGSSANLVHFQEGFSTIKDHVFMIGSSKFSFVLSPEEVIPLEHHHHHH | soluble
18 | MAHHHHHHMYGGNNLRKFIPLVDIPLLGNKNNLLIFCGKVNFGSKKQKEKVDKETKKFRKFLKISNMKNNDEDEKYEGDINEGDMKKKMKGISGMTRIDYKIYDIKIQEINKNFENKIKKIFDTCLQIDFFNNISILKDKKNIKLCDVAQVVIKSSNLIYFYPYTINDIQKIIHNLKLKDNTWNPTVSNDGQYVILQIQPLSEDVKMKKKKEAKDLFEKIKNDIRNVRYKIRDDIIKNIEGDQWKIVERNKLDNYIKDKMKLIENVYEQSVKNY | not soluble
